Experimental data as given in publication PMC2836930 (Biomacromolecules, 2008).
Where “and” joins values, the source holds several entries; their conditions need not be identical. Identical values can stand only once. Like-named read-outs stand apart in the source and are kept apart here.

Experiments:
[1] = target: the molecule itself; experiment: AUC
[2] = target: the molecule itself; experiment: AUC; remark: listed apart in the source

**Q.** What does the source list for Ac-IDFISTYITKIDKKIQSIEDIIHQIENKISEIKQLIK-NH2 [γ_(52–88)KI]?
**A.** Kd [1]: 4.95 µM; stoichiometry N [1]: 2 and 4; stoichiometry N [2]: ~2 and ~4
